Assay results taken from patent US20100135997A1 (MEDGENE, published 2010).
Positions count from the first letter of the chain named.

B1: SEQ ID NO 61 (receptor)
chain: MGHLPKPTLWAEPGSVITMGQPVTLRCQGGQETQEYRLYREKKTAPWITRIPQELVKKGQFPIPSITWEHAGRYRCYYGSDTAGRSESSDPLELVVTGAYIKPTLSAQPSPVVNSGGNVTLQCDSQVAFDGFILCKEGEDEHPQCLNSQPHARGSSRAIFSVGPVSPSRRWWYRCYAYDSNSPYEWSLPSDLLELLVL
notes: mutated soluble two domain ILT-2
B2: SEQ ID NO 83 (receptor)
chain: B1 chain with M19Q, Q21S, A99I, I101L, K102A
notes: as for B1
B3: SEQ ID NO 89 (receptor)
chain: B1 chain with M19L, A99V, S168G
notes: as for B1
B4: SEQ ID NO 65 (receptor)
chain: B1 chain with G20D, A83S, G84Q, R85W, E87A, A99V
notes: as for B1
B5: SEQ ID NO 85 (receptor)
chain: B1 chain with M19Q, Q21S, A99I, I101Q, K102A
notes: as for B1
B6: SEQ ID NO 87 (receptor)
chain: B1 chain with M19Q, Q21R, A99V
notes: as for B1
B7: SEQ ID NO 95 (receptor)
chain: B1 chain with M19Q, Q21S, Y77Q, Y78G, G79V, D81Q, A99V
notes: as for B1
B8: SEQ ID NO 71 (receptor)
chain: B1 chain with M19Q, Q21S, D81Q, T82G, A83G, G84L, A99V
notes: as for B1
B9: SEQ ID NO 86 (receptor)
chain: B1 chain with M19Q, Q21A, A99V, S168G
notes: as for B1
B10: SEQ ID NO 79 (receptor)
chain: B1 chain with G20D, S80T, D81Q, A99V, S168G
notes: as for B1
B11: SEQ ID NO 76 (receptor)
chain: B1 chain with M19Q, Q21S, S80T, D81Q
notes: as for B1
B12: SEQ ID NO 64 (receptor)
chain: B1 chain with G20Q, Q21R, K42R, N147S
notes: as for B1
B13: SEQ ID NO 100 (receptor)
chain: B1 chain with M19Q, Q21S, A99I, I101L, K102Q, S168G
notes: as for B1
B14: SEQ ID NO 91 (receptor)
chain: B1 chain with M19Q, Q21S, I66V, A99V
notes: as for B1
B15: SEQ ID NO 73 (receptor)
chain: B1 chain with M19Q, Q21S, Y77M, Y78Q, G79Y, S80T, D81L, A99V
notes: as for B1
B16: SEQ ID NO 70 (receptor)
chain: B1 chain with W10Q, M19Q, Q21S, Y77V, Y78I, G79Q, S80R, D81G, A99V
notes: as for B1
B17: SEQ ID NO 72 (receptor)
chain: B1 chain with M19Q, Q21S, S80T, D81Q, A99V
notes: as for B1
B18: SEQ ID NO 63 (receptor)
chain: B1 chain with M19L, G20M
notes: as for B1
B19: SEQ ID NO 62 (receptor)
chain: B1 chain with G20D, A99V, S168G
notes: as for B1
B20: SEQ ID NO 80 (receptor)
chain: B1 chain with G20D, Y77V, Y78I, G79Q, S80R, D81G, A99V
notes: as for B1
B21: SEQ ID NO 78 (receptor)
chain: B1 chain with G20D, D81Q, T82G, A83G, G84L, A99V, S168G
notes: as for B1
B22: SEQ ID NO 104 (receptor)
chain: B1 chain with M19L, A99I, I101L, K102A
notes: as for B1
B23: SEQ ID NO 75 (receptor)
chain: B1 chain with M19Q, Q21S, D81Q, T82G, A83G, G84L
notes: as for B1
B24: SEQ ID NO 82 (receptor)
chain: B1 chain with M19Q, Q21S, A99I, I101R, K102Q
notes: as for B1
B25: SEQ ID NO 74 (receptor)
chain: B1 chain with M19Q, Q21S, A83S, G84Q, R85W, E87A, A99V
notes: as for B1
B26: SEQ ID NO 106 (receptor)
chain: B1 chain with M19L, A83S, G84Q, R85W, E87A, A99I, I101L, K102A
notes: as for B1
B27: SEQ ID NO 97 (receptor)
chain: B1 chain with M19Q, Q21S, A99I, I101K, K102A, S168G
notes: as for B1
B28: SEQ ID NO 92 (receptor)
chain: B1 chain with M19Q, Q21S, Y77V, Y78G, G79W, S80A, D81V, A99V
notes: as for B1
B29: SEQ ID NO 98 (receptor)
chain: B1 chain with M19Q, Q21S, A99I, I101Q, K102R, S168G
notes: as for B1
B30: SEQ ID NO 102 (receptor)
chain: B1 chain with M19Q, Q21S, A99I, I101Q
notes: as for B1
B31: SEQ ID NO 105 (receptor)
chain: B1 chain with G20D, A83S, G84Q, R85W, E87A, A99I, I101L, K102A
notes: as for B1
B32: SEQ ID NO 69 (receptor)
chain: B1 chain with M19L, G20S, A99V
notes: as for B1
B33: SEQ ID NO 77 (receptor)
chain: B1 chain with M19Q, Q21S, Y77M, Y78Q, G79Y, S80T, D81L
notes: as for B1
B34: SEQ ID NO 101 (receptor)
chain: B1 chain with M19Q, Q21S, A99I, I101K, K102Q, S168G
notes: as for B1
B35: SEQ ID NO 99 (receptor)
chain: B1 chain with M19Q, Q21S, A99I, I101Q, K102A, S168G
notes: as for B1
B36: SEQ ID NO 90 (receptor)
chain: B1 chain with M19Q, Q21S, A99V, S168G
notes: as for B1
B37: SEQ ID NO 88 (receptor)
chain: B1 chain with M19V, A99V, S168G
notes: as for B1
B38: SEQ ID NO 94 (receptor)
chain: B1 chain with M19Q, Q21S, S80G, D81Q, T82E, A83G, G84A, A99V
notes: as for B1
B39: SEQ ID NO 103 (receptor)
chain: B1 chain with G20D, A99I, I101L, K102A
notes: as for B1
B40: SEQ ID NO 96 (receptor)
chain: B1 chain with M19Q, Q21S, W47Q, A99V, I101V, K102A, S168G
notes: as for B1
B41: SEQ ID NO 81 (receptor)
chain: B1 chain with G20D, Y77M, Y78Q, G79Y, S80T, D81L, A99V
notes: as for B1
B42: SEQ ID NO 68 (receptor)
chain: B1 chain with M19L, G20F
notes: as for B1
B43: SEQ ID NO 84 (receptor)
chain: B1 chain with M19Q, Q21S, A99I, I101K, K102A
notes: as for B1
B44: SEQ ID NO 19 (receptor)
chain: MAGHLPKPTLWAEPGSVITMDQPVTLRCQGGQETQEYRLYREKKTAPWITRIPQELVKKGQFPIPSITWEHAGRYRCYYGSDTSQWSASSDPLELVVTGVYIKPTLSAQPSPVVNSGGNVTLQCDSQVAFDGFILCKEGEDEHPQCLNSQPHARGSSRAIFSVGPVSPSRRWWYRCYAYMSWSPYEWSLPSDLLELDVDG
notes: mutated soluble two domain ILT-2; also called clone 83; Clone c83
B45: SEQ ID NO 7 (receptor)
chain: B44 chain with M180P, S181I, S183T
notes: as for B1
B46: SEQ ID NO 9 (receptor)
chain: B44 chain with S181N, S183A
notes: as for B1
B47: SEQ ID NO 10 (receptor)
chain: B44 chain with M180T, S181D, W182Y
notes: as for B1
B48: SEQ ID NO 8 (receptor)
chain: B44 chain with M180V, S181A, S183A
notes: as for B1

molecular target: T1, HLA-A*0201 loaded with the Carcinoembryonic antigen (CEA)-derived … peptide (biotin on the C-terminal biotinylation tag); assay: Biacore SPR
T1 construct: Soluble, biotinylated, immobilised on a streptavidin chip
Protocol: SPR measures changes in refractive index expressed in response units (RU) near a sensor surface within a small flow cell, a principle that can be used to detect receptor ligand interactions and to analyse their affinity and kinetic parameters. The probe flow cells were prepared by immobilising the pMHC complexes in flow cells via biotin-tag binding. The assay was then performed by passing soluble ILT-like molecule over the surfaces of the different flow cells at a constant flow rate, measuring the SPR response in doing so.

| Kd [nM] | koff [s⁻¹] | Binder |
| --- | --- | --- |
| ≤ 1000 | ≤ 2 | B1 |
| ≤ 1000 | ≤ 2 | B2 |
| ≤ 1000 | ≤ 2 | B3 |
| ≤ 1000 | ≤ 2 | B4 |
| ≤ 1000 | ≤ 2 | B5 |
| ≤ 1000 | ≤ 2 | B6 |
| ≤ 1000 | ≤ 2 | B7 |
| ≤ 1000 | ≤ 2 | B8 |
| ≤ 1000 | ≤ 2 | B9 |
| ≤ 1000 | ≤ 2 | B10 |
| ≤ 1000 | ≤ 2 | B11 |
| ≤ 1000 | ≤ 2 | B12 |
| ≤ 1000 | ≤ 2 | B13 |
| ≤ 1000 | ≤ 2 | B14 |
| ≤ 1000 | ≤ 2 | B15 |
| ≤ 1000 | ≤ 2 | B16 |
| ≤ 1000 | ≤ 2 | B17 |
| ≤ 1000 | ≤ 2 | B18 |
| ≤ 1000 | ≤ 2 | B19 |
| ≤ 1000 | ≤ 2 | B20 |
| ≤ 1000 | ≤ 2 | B21 |
| ≤ 1000 | ≤ 2 | B22 |
| ≤ 1000 | ≤ 2 | B23 |
| ≤ 1000 | ≤ 2 | B24 |

| Kd [nM] | koff [s⁻¹] | Binder |
| --- | --- | --- |
| ≤ 1000 | ≤ 2 | B25 |
| ≤ 1000 | ≤ 2 | B26 |
| ≤ 1000 | ≤ 2 | B27 |
| ≤ 1000 | ≤ 2 | B28 |
| ≤ 1000 | ≤ 2 | B29 |
| ≤ 1000 | ≤ 2 | B30 |
| ≤ 1000 | ≤ 2 | B31 |
| ≤ 1000 | ≤ 2 | B32 |
| ≤ 1000 | ≤ 2 | B33 |
| ≤ 1000 | ≤ 2 | B34 |
| ≤ 1000 | ≤ 2 | B35 |
| ≤ 1000 | ≤ 2 | B36 |
| ≤ 1000 | ≤ 2 | B37 |
| ≤ 1000 | ≤ 2 | B38 |
| ≤ 1000 | ≤ 2 | B39 |
| ≤ 1000 | ≤ 2 | B40 |
| ≤ 1000 | ≤ 2 | B41 |
| ≤ 1000 | ≤ 2 | B42 |
| ≤ 1000 | ≤ 2 | B43 |
| ≤ 1000 | ≤ 2 | B44 |
| ≤ 1000 | ≤ 2 | B45 |
| ≤ 1000 | ≤ 2 | B46 |
| ≤ 1000 | ≤ 2 | B47 |
| ≤ 1000 | ≤ 2 | B48 |
